These results are taken from the supplement of paper PMC10567573.

B1: CHCHD6 (parent)
chain: MYKLSSEQFHEAASKMESTIKPRR
B2: ZNF263 (parent)
chain: EKPYKCPECGEIFAHSSNLLRHQR
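Further: lentivirally expressed fusions sorted by FACS into six bins by GFP to DsRed ratio, PSI derived from sequencing read proportions per bin multiplied by bin number.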

Variants of B1 are the subject of one data set. Put plainly: protein stability index of a GFP-peptide fusion (GPS, HEK-293T) (PSI 1-6); higher = more stable. The conditions noted are these: c terminus: a fixed tail appended.
As for MYKLSSEQFHEAASKMESTINPRR [K21N], the protein stability index turned out to be 3.89.

Variants of B2 are the subject of another data set. Described as above. The conditions noted are these: c terminus: a fixed tail appended.
EKPYKFPECGEIFAHSSNLLRHQR [C6F]: the protein stability index is 3.46. For EKPYKAPECGEIFAHSSNLLRHQR [C6A], the protein stability index was determined as 3.37.

On to EKPYKDPECGEIFAHSSNLLRHQR [C6D], for which the protein stability index was determined as 3.49. Regarding EKPYKHPECGEIFAHSSNLLRHQR [C6H], the protein stability index stood at 2.71.

EKPYKIPECGEIFAHSSNLLRHQR [C6I]: the protein stability index was 3.23. On the same count and under the same terms, as for EKPYKEPECGEIFAHSSNLLRHQR [C6E], the figure is 3.76; as for EKPYKKPECGEIFAHSSNLLRHQR [C6K], 3.03; as for EKPYKLPECGEIFAHSSNLLRHQR [C6L], 3.19. In the case of VKPYKCPECGEIFAHSSNLLRHQR [E1V], the protein stability index was determined as 2.45.

In the case of IKPYKCPECGEIFAHSSNLLRHQR [E1I], the protein stability index was found to be 2.33. The same measure, in the same setting: as for DKPYKCPECGEIFAHSSNLLRHQR [E1D], the figure is 2.94; as for QKPYKCPECGEIFAHSSNLLRHQR [E1Q], 3.43.

Regarding HKPYKCPECGEIFAHSSNLLRHQR [E1H], the protein stability index stood at 2.75. In the case of RKPYKCPECGEIFAHSSNLLRHQR [E1R], the protein stability index turned out to be 2.9. Same read-out and setting: for TKPYKCPECGEIFAHSSNLLRHQR [E1T] the value was 2.65; for LKPYKCPECGEIFAHSSNLLRHQR [E1L], 2.53. The same measure, in the same setting: as for CKPYKCPECGEIFAHSSNLLRHQR [E1C], the figure is 1.85; as for KKPYKCPECGEIFAHSSNLLRHQR [E1K], 1.83; as for FKPYKCPECGEIFAHSSNLLRHQR [E1F], 2.13. Turning to GKPYKCPECGEIFAHSSNLLRHQR [E1G], the protein stability index was determined as 1.99.

WKPYKCPECGEIFAHSSNLLRHQR [E1W]: the protein stability index turned out to be 1.76.

As for SKPYKCPECGEIFAHSSNLLRHQR [E1S], the protein stability index is 2.44. Take MKPYKCPECGEIFAHSSNLLRHQR [E1M]: the protein stability index was 2.37. On the same count and under the same terms, as for AKPYKCPECGEIFAHSSNLLRHQR [E1A], the figure is 1.55; as for PKPYKCPECGEIFAHSSNLLRHQR [E1P], 2.2. In the case of NKPYKCPECGEIFAHSSNLLRHQR [E1N], the protein stability index turned out to be 2.31. Same read-out and setting: for YKPYKCPECGEIFAHSSNLLRHQR [E1Y] the value was 2.06. On to ETPYKCPECGEIFAHSSNLLRHQR [K2T], for which the protein stability index was 3.05. The same measure, in the same setting: as for EYPYKCPECGEIFAHSSNLLRHQR [K2Y], the figure is 3.34; as for EEPYKCPECGEIFAHSSNLLRHQR [K2E], 3.09; as for ECPYKCPECGEIFAHSSNLLRHQR [K2C], 3.25. The same measure, in the same setting: as for EVPYKCPECGEIFAHSSNLLRHQR [K2V], the figure is 3.

In the case of EWPYKCPECGEIFAHSSNLLRHQR [K2W], the protein stability index stood at 2.32. On the same count and under the same terms, for EDPYKCPECGEIFAHSSNLLRHQR [K2D] the value was 3.24; for EFPYKCPECGEIFAHSSNLLRHQR [K2F], 3.99; for EIPYKCPECGEIFAHSSNLLRHQR [K2I], 1.68. The same measure, in the same setting: for EQPYKCPECGEIFAHSSNLLRHQR [K2Q] the value was 2.89; for EPPYKCPECGEIFAHSSNLLRHQR [K2P], 3.37.

Take EHPYKCPECGEIFAHSSNLLRHQR [K2H]: the protein stability index worked out at 3.36. The same measure, in the same setting: as for ERPYKCPECGEIFAHSSNLLRHQR [K2R], the figure is 2.64. With EMPYKCPECGEIFAHSSNLLRHQR [K2M], the protein stability index came out at 2.59. Same read-out and setting: for EKPYNCPECGEIFAHSSNLLRHQR [K5N] the value was 2.5; for EKPYSCPECGEIFAHSSNLLRHQR [K5S], 2.64. Same read-out and setting: for EKPYFCPECGEIFAHSSNLLRHQR [K5F] the value was 2.66; for EKPYGCPECGEIFAHSSNLLRHQR [K5G], 2.31; for EKPYQCPECGEIFAHSSNLLRHQR [K5Q], 3.12. The same measure, in the same setting: as for EKPYRCPECGEIFAHSSNLLRHQR [K5R], the figure is 2.61; as for EKPYVCPECGEIFAHSSNLLRHQR [K5V], 2.62. EKPYTCPECGEIFAHSSNLLRHQR [K5T]: the protein stability index came to 3.41. The same measure, in the same setting: for EKPYPCPECGEIFAHSSNLLRHQR [K5P] the value was 2.55; for EKPYDCPECGEIFAHSSNLLRHQR [K5D], 2.24; for EKPYHCPECGEIFAHSSNLLRHQR [K5H], 2.38.

Regarding EKPYYCPECGEIFAHSSNLLRHQR [K5Y], the protein stability index was 2.2. Take EKPYACPECGEIFAHSSNLLRHQR [K5A]: the protein stability index came out at 2.91. Same read-out and setting: for EKPYICPECGEIFAHSSNLLRHQR [K5I] the value was 3.39; for EKPYWCPECGEIFAHSSNLLRHQR [K5W], 2.46.

For the variant EKPYECPECGEIFAHSSNLLRHQR [K5E], the protein stability index is 3.02. Still for that read-out and setting: as for EKPYLCPECGEIFAHSSNLLRHQR [K5L], the figure is 2.39; as for EKPYCCPECGEIFAHSSNLLRHQR [K5C], 1.52. On the same count and under the same terms, as for EKPTKCPECGEIFAHSSNLLRHQR [Y4T], the figure is 2.91. In the case of EKPSKCPECGEIFAHSSNLLRHQR [Y4S], the protein stability index stood at 2.52. As for EKPGKCPECGEIFAHSSNLLRHQR [Y4G], the protein stability index amounted to 2.85. Same read-out and setting: as for EKPMKCPECGEIFAHSSNLLRHQR [Y4M], the figure is 1.84. Same read-out and setting: as for EKPWKCPECGEIFAHSSNLLRHQR [Y4W], the figure is 2.29; as for EKPIKCPECGEIFAHSSNLLRHQR [Y4I], 2.76; as for EKPKKCPECGEIFAHSSNLLRHQR [Y4K], 2.73.

In the case of EKPCKCPECGEIFAHSSNLLRHQR [Y4C], the protein stability index amounted to 2.48. Still for that read-out and setting: as for EKPEKCPECGEIFAHSSNLLRHQR [Y4E], the figure is 2.99; as for EKPQKCPECGEIFAHSSNLLRHQR [Y4Q], 3.06. Same read-out and setting: as for EKPPKCPECGEIFAHSSNLLRHQR [Y4P], the figure is 2.12; as for EKPNKCPECGEIFAHSSNLLRHQR [Y4N], 2.45. On the same count and under the same terms, for EKPFKCPECGEIFAHSSNLLRHQR [Y4F] the value was 2.15; for EKPLKCPECGEIFAHSSNLLRHQR [Y4L], 2.47. As to EKPVKCPECGEIFAHSSNLLRHQR [Y4V], the protein stability index came to 3.51. Same read-out and setting: for EKPRKCPECGEIFAHSSNLLRHQR [Y4R] the value was 2.48; for EKAYKCPECGEIFAHSSNLLRHQR [P3A], 2.29; for EKDYKCPECGEIFAHSSNLLRHQR [P3D], 3.11. On the same count and under the same terms, for EKSYKCPECGEIFAHSSNLLRHQR [P3S] the value was 2.09; for EKHYKCPECGEIFAHSSNLLRHQR [P3H], 1.88; for EKRYKCPECGEIFAHSSNLLRHQR [P3R], 1.89. Still for that read-out and setting: for EKQYKCPECGEIFAHSSNLLRHQR [P3Q] the value was 1.78; for EKVYKCPECGEIFAHSSNLLRHQR [P3V], 2.13. Take EKKYKCPECGEIFAHSSNLLRHQR [P3K]: the protein stability index is 1.52. The same measure, in the same setting: as for EKNYKCPECGEIFAHSSNLLRHQR [P3N], the figure is 1.39; as for EKTYKCPECGEIFAHSSNLLRHQR [P3T], 2.85; as for EKYYKCPECGEIFAHSSNLLRHQR [P3Y], 3.04. On the same count and under the same terms, as for EKWYKCPECGEIFAHSSNLLRHQR [P3W], the figure is 2.83; as for EKFYKCPECGEIFAHSSNLLRHQR [P3F], 2.69; as for EKMYKCPECGEIFAHSSNLLRHQR [P3M], 2.78. Still for that read-out and setting: for EKEYKCPECGEIFAHSSNLLRHQR [P3E] the value was 2.91.

EKCYKCPECGEIFAHSSNLLRHQR [P3C]: the protein stability index is 2.1.

For the variant EKIYKCPECGEIFAHSSNLLRHQR [P3I], the protein stability index came to 1.82. Same read-out and setting: for EKLYKCPECGEIFAHSSNLLRHQR [P3L] the value was 2.57.
